For this test, the target named is 重组HBx蛋白 (B基因型HBx, GenBank NO.AF100309.1, 大肠杆菌表达) (乙型肝炎病毒(HBV) B基因型). The experiment in a line: ELISA, serial dilution of purified antibody on plates coated with immunogen HBx; positive threshold 0.3. A general note: ELISA stands for enzyme-linked immunosorbent assay.

B1: HBx单克隆抗体KY01 (antibody, mouse IgG1, V domains shown)
VH: EVQLQQSGPELVRPGASVKMSCKASGYTFTSYWMHWLKQRPGQGLEWIGMIDPSNSETRLNQKFKDKATLNVDKSSNTAYMQLSSLTSEDSAVYYCAYDGAYWGQGTLVTVSE
VL: DIVLTQSPASLAVSLGQRATISCRASESVDSYGNSFIHWYQQKPGQPPKLLIYRASNLESGIPARFSGSGSRTDFTLTINPVEADDVATYFCQQSNEDPRTFGGGTKLEIKR
For B1, the 抗体滴度(效价) (dilution factor (1:n)) turned out to be 2.5e+06.

Values taken from patent publication CN106008708A.
